From patent USRE50631 (VELOSBIO, dated 2025) come the findings set out here.

In assay [1] the target is T1, human receptor tyrosine kinase like orphan receptor 1 (ROR1) (human, UniProt Q01973 30-937).
T1 construct: whole, on cells; Target in all assays is endogenous ROR1 on human tumor cell lines; the cell line is named under assay; also called cell surface ROR1
The experiment in a line: flow cytometry on Jeko-1 cells (FIG. 3B). Background: Flow cytometry measures light scatter and fluorescence of single cells or particles in a stream.

Assay [2] concerns the target T1, human receptor tyrosine kinase like …. The experiment in a line: flow cytometry on Jeko-1 cells (FIG. 3A).
Assay [3] has the same target. Kind of assay: cell-based or functional assay.
The target is the same in assay [4]. Kind of assay: flow cytometry on MDA-MB-231 cells, PE anti-human IgG secondary, % maximal binding.
Assay [5] has the same target. The experiment in a line: flow cytometry on Jeko-1 cells, PE anti-human IgG secondary, % maximal binding.

By EC50 is commonly meant the concentration giving half of the maximal effect.

T1 sequence (Q01973 30-937): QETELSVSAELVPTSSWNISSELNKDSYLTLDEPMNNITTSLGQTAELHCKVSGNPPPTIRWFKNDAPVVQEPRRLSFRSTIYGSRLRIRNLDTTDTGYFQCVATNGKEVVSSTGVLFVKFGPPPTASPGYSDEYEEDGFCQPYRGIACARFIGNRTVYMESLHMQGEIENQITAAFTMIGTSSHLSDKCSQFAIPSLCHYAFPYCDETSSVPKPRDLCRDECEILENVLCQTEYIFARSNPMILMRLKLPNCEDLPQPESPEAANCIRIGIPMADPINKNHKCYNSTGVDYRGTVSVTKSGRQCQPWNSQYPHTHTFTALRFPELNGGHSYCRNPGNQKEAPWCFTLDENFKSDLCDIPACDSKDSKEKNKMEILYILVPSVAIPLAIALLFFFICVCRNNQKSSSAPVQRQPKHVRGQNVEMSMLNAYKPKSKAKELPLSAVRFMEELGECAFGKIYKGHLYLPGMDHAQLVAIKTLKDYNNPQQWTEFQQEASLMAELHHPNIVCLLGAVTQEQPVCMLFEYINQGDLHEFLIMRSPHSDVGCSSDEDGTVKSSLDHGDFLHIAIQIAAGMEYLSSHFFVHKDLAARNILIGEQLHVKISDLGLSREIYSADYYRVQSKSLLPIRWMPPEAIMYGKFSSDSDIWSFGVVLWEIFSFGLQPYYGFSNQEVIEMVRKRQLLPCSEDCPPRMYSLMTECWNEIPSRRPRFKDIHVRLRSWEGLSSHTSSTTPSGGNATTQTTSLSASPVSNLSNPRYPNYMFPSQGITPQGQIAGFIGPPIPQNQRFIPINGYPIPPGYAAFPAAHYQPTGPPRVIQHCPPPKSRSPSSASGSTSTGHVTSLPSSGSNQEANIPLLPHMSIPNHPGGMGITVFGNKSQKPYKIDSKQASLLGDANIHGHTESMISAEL

B1: D10 (antibody, V domains shown)
VH: QVQLKESGPGLVAPSQTLSITCTVSGFSLTSYGVHWVRQPPGKGLEWLGVIWAGGFTNYNSALKSRLSISKDNSKSQVLLKMTSLQTDDTAMYYCARRGSSYSMDYWGQGTSVIVSS
VL: EIVLSQSPAITAASLGQKVTITCSASSNVSYIHWYQQRSGTSPRPWIYEISKLASGVPVRFSGSGSGTSYSLTISSMEAEDAAIYYCQQWNYPLITFGSGTKLEIQ
notes: also called antibody D10
In assay [1], B1 came in with an EC50 of 0.25 µg/mL.

B2: ADC-S (antibody, V domains shown)
VH: QVQLKESGPGLVAPSQTLSITCTVSGFSLTSYGVHWVRQPPGKGLEWLGVIWAGGFTNYNSALKSRLSISKDNSKSQVLLKMTSLQTDDTAMYYCARRGSSYSMDYWGQGTSVIVSS
VL: EIVLSQSPAITAASLGQKVTITCSASSNVSYIHWYQQRSGTSPRPWIYEISKLASGVPVRFSGSGSGTSYSLTISSMEAEDAAIYYCQQWNYPLITFGSGTKLEIQ
modifications: MAL-VC-PAB-MMAE bonded via cysteine residues of the antibody (positions not stated)
notes: Antibody-drug conjugate of D10; also called D10-MAL-VC-PAB-MMAE
B2 registered an EC50 in assay [1] of 0.15 µg/mL.

B3: 4A5 (antibody, V domains shown)
VH: EVKLVESGGGLVKPGGSLKLSCAASGFTFSSYAMSWVRQIPEKRLEWVASISRGGTTYYPDSVKGRFTISRDNVRNILYLQMSSLRSEDTAMYYCGRYDYDGYYAMDYWGQGTSVTVSS
VL: DIKMTQSPSSMYASLGERVTITCKASPDINSYLSWFQQKPGKSPKTLIYRANRLVDGVPSRFSGGGSGQDYSLTINSLEYEDMGIYYCLQYDEFPYTFGGGTKLEMK
notes: also called anti-ROR1 antibody 4A5
In assay [2], B3 came in with an EC50 of 0.121 µg/mL.

B4: ADC-T (antibody, V domains shown)
VH: EVKLVESGGGLVKPGGSLKLSCAASGFTFSSYAMSWVRQIPEKRLEWVASISRGGTTYYPDSVKGRFTISRDNVRNILYLQMSSLRSEDTAMYYCGRYDYDGYYAMDYWGQGTSVTVSS
VL: DIKMTQSPSSMYASLGERVTITCKASPDINSYLSWFQQKPGKSPKTLIYRANRLVDGVPSRFSGGGSGQDYSLTINSLEYEDMGIYYCLQYDEFPYTFGGGTKLEMK
modifications: MAL-VC-PAB-MMAE bonded via cysteine residues of the antibody (positions not stated)
notes: Antibody-drug conjugate of 4A5; also called 4A5-MAL-VC-PAB-MMAE
With B4, the EC50 in assay [2] came out at 0.193 µg/mL. Compared with the last molecule, the EC50 is about 1.6-fold higher.

B5: ADC-E (antibody, human IgG1, kappa, V domains shown)
VH: QVQLQESGPGLVKPSQTLSLTCTVSGYAFTAYNIHWVRQAPGQGLEWMGSFDPYDGGSSYNQKFKDRLTISKDTSKNQVVLTMTNMDPVDTATYYCARGWYYFDYWGHGTLVTVSS
VL: DIVMTQTPLSLPVTPGEPASISCRASKSISKYLAWYQQKPGQAPRLLIYSGSTLQSGIPPRFSGSGYGTDFTLTINNIESEDAAYYFCQQHDESPYTFGEGTKVEIKR
modifications: SC-VC-PAB-MMAE bonded via lysine residues of the antibody (chain and positions not stated)
Take B5: in assay [3], the “IC50, cell viability (CellTiter-Glo, 72 h), Bt549 cells” value is 74.4 nM; the “IC50, cell viability (CellTiter-Glo, 72 h), DOHH2 cells” value came out at 89.6 nM; the “IC50, cell viability (CellTiter-Glo, 72 h), HBL-1 cells” value amounted to 147 nM; the “IC50, cell viability (CellTiter-Glo, 72 h), JHOM1 cells” value came to 32.9 nM. In addition, in assay [3], the “IC50, cell viability (CellTiter-Glo, 72 h), MDA-MB-468 cells” value stood at 80.1 nM; the “IC50, cell viability (CellTiter-Glo, 72 h), SKOvr3 cells” value worked out at 201 nM; the “IC50, cell viability (CellTiter-Glo, 72 h), TMD-8 cells” value was found to be 94.3 nM; the “IC50, cell viability (CellTiter-Glo, 72 h), TOV112D cells” value is 57.8 nM.

B6: Ab1 (antibody, human IgG1, kappa, V domains shown)
VH: QVQLQESGPGLVKPSQTLSLTCTVSGYAFTAYNIHWVRQAPGQGLEWMGSFDPYDGGSSYNQKFKDRLTISKDTSKNQVVLTMTNMDPVDTATYYCARGWYYFDYWGHGTLVTVSS
VL: DIVMTQTPLSLPVTPGEPASISCRASKSISKYLAWYQQKPGQAPRLLIYSGSTLQSGIPPRFSGSGYGTDFTLTINNIESEDAAYYFCQQHDESPYTFGEGTKVEIKR
notes: also called unconjugated Ab1; parental antibody Ab1
Take B6: the EC50 in assay [2] was 0.0164 µg/mL; in assay [4] it was 0.0328 µg/mL; in assay [5], 0.0136 µg/mL; in assay [1], 0.0165 µg/mL.

B7: ADC-B (antibody, human IgG1, kappa, V domains shown)
VH: QVQLQESGPGLVKPSQTLSLTCTVSGYAFTAYNIHWVRQAPGQGLEWMGSFDPYDGGSSYNQKFKDRLTISKDTSKNQVVLTMTNMDPVDTATYYCARGWYYFDYWGHGTLVTVSS
VL: DIVMTQTPLSLPVTPGEPASISCRASKSISKYLAWYQQKPGQAPRLLIYSGSTLQSGIPPRFSGSGYGTDFTLTINNIESEDAAYYFCQQHDESPYTFGEGTKVEIKR
modifications: SMCC-DM1 bonded via lysine residues of the antibody (chain and positions not stated); SMCC-DM1 bonded via lysine residues of the antibody (chain and positions not stated); DAR 3.0 to 3.20
Take B7: in assay [3], the “IC50, cell viability (CellTiter-Glo, 72 h), A2008 cells” value was determined as 49 nM; the “IC50, cell viability (CellTiter-Glo, 72 h), Bt549 cells” value turned out to be 20.2 nM; the “IC50, cell viability (CellTiter-Glo, 72 h), DOHH2 cells” value was 78.3 nM; the “IC50, cell viability (CellTiter-Glo, 72 h), HBL-1 cells” value turned out to be 70.1 nM. Also, in assay [3], the “IC50, cell viability (CellTiter-Glo, 72 h), HCC1187 cells” value is 6.2 nM; the “IC50, cell viability (CellTiter-Glo, 72 h), JHOM1 cells” value amounted to 24.3 nM; the “IC50, cell viability (CellTiter-Glo, 72 h), MDA-MB-468 cells” value was determined as 18.8 nM; the “IC50, cell viability (CellTiter-Glo, 72 h), SKOvr3 cells” value was 78.7 nM. For the same molecule, in assay [3], the “IC50, cell viability (CellTiter-Glo, 72 h), TMD-8 cells” value came to 50 nM and the “IC50, cell viability (CellTiter-Glo, 72 h), TOV112D cells” value came to 34.2 nM.
